Laboratory results reported in patent US12545745B2, “Method for treating a degenerative neurological disorders comprising administering ASM inhibitor” (KYUNGPOOK NATIONAL UNIVERSITY INDUSTRY-ACADEMIC COOPERATION …, priority 2013, dated 2026).

How the values were obtained:
ASM = biological target: T1, ASM (Mus musculus, UniProt Q04519); assay: ASM activity / concentration level in serum (plasma) and brain tissue of APP/PS1 mice (UPLC); assay type: in vivo; details: 7-month-old APP/PS1 mice, 50 mg/kg i.p. twice weekly, vs PBS; FIG. 51B
T1 construct: from tissue; host or cells: mouse serum/plasma and brain tissue (APP/PS1, RSD-stressed C57BL/6, FUS R521C mice)
T1 sequence (Q04519 45-627): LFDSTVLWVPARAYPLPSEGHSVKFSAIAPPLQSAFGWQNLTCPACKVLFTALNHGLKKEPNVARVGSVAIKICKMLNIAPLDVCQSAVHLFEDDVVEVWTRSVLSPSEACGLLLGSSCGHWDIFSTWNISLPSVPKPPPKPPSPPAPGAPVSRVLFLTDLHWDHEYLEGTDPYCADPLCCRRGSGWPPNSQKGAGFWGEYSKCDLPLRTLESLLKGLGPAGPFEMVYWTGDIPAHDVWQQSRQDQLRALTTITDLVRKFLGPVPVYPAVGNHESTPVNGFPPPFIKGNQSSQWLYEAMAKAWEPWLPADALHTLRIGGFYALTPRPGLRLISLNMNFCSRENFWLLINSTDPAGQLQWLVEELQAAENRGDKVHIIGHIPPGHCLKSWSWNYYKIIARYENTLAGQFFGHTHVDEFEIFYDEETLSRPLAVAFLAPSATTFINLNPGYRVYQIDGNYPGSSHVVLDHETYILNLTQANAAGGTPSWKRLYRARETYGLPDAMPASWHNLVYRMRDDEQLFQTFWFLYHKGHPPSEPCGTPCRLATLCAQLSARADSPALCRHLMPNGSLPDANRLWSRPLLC
Protocol: More specifically, 3 μl of plasma, brain tissue and fibroblast samples from each mouse were mixed with an ASM activity buffer, and stored at 37° C. The hydrolysis reaction was completed by adding 114 μl of ethanol to the mixed solution, and then the mixed solution was centrifuged. 30 μl of the supernatant was transferred into a glass vial, and then 5 μl was applied to the UPLC system. The ASM concentration level was quantified in comparison with a bodipy (aminoacetaldehyde) combined with sphingomyelin and ceramide. The sphingomyelin and ceramide levels were extracted and quantified according to a known method, by extracting lipid from the sample, resuspending the dried lipid extract in 25 μl of 0.2% Igepal CA-630 (Sigma-Aldrich), and quantifying the concentration level of each lipid using the UPLC system. […] The animal test conducted was approved by the Kyungpook National University Institutional Animal Care and Use Committee (IACUC). Transgenic mouse line overexpressing APPswe (hAPP695swe) and PS1 (presenilin-1M146V) based on C57BL/6 mice (Charles River, UK) were used as Alzheimer's animal models [hereinafter, APP mice: mice overexpressing APPswe, PS1 mice: overexpressing presenilin-1M146V; GlaxoSmithKline]. […] The concentration level of ASM was measured as follows. Specifically, 3μ ? of mouse serum, brain tissue and fibroblast samples were mixed with ASM activity buffer and stored at 37° C. 114 μ ? of ethanol was added to terminate the hydrolysis reaction, followed by centrifugation. […] The ASM concentration levels were quantified by comparison with sphingomyelin and Bodipy (aminoacetaldehyde) conjugated with ceramide. The extraction and quantification of the sphingomyelin and ceramide was carried out by extracting and drying the lipids from the sample according to a known conventional method, and resuspending the dried lipid extract to 25 μl of 0.2% Igepal CA-630 (Sigma-Aldrich), and the concentration levels of each lipid were quantitated using the UPLC system. […] The concentration level of ASM was measured as follows. […]

APP/PS1 mice = assay: Morris water maze (MWM) test in APP/PS1 mice; assay type: in vivo, mouse; details: 50 mg/kg i.p. twice weekly, vs PBS, FIG. 55A-55C
Protocol: More specifically, wild type mice, APP/PS1/ASM^+/− mice, ASM^+/− mice and APP/PS1 mice were used. The mice were given four trials per day for 10 days to learn the task, and on day 11, the mice were given a probe trial in which the platform was removed. The escape latency during the test period and the time spent in the target platform on day 11 were measured. The results are illustrated in FIG. 7 and FIG. 8.
(§1) MWM (Morris water maze) experiments were performed in a conventional manner to identify potential effects on learning and memory. Briefly, for the MWM test, mouse were learned the task four times a day for 10 days, followed by the removal of the platform on the 11th day and subsequently a probe trial performed.
as §1, with “mice” for “mouse”

astrocytes and microglia = assay: Neuroinflammation in brain of APP/PS1 mice (GFAP, Iba-1 staining, cytokine real-time PCR); assay type: in vivo, mouse; details: cerebral medulla and hippocampus, vs PBS
Protocol: After fixing the cerebral and hippocampal tissues of the mice, 0.5% thioflavin S (Sigma-Aldrich), anti-20G10 antibodies (mouse, 1:1000) against Aβ42, anti-G30 antibodies (rabbit, […]) against Aβ40, anti-GFAP antibodies (rabbit, 1:500, DAKO), or anti-Iba-1 antibodies (rabbit, 1:500, Wako) were co-cultured. The tissues were analyzed using a laser scanning confocal microscope equipped with Fluoview SV1000 imaging software (Olympus FV1000, Japan) or an Olympus BX51 microscope. Percentage of stained area to total tissue area was quantified and analyzed using Metamorph software (Molecular Devices).
To quantify the expression levels of inflammatory cytokines (TNF-α, […] and IL-6), real-time quantitative PCR was used. […] Also, using Corbett research RG-6000 real-time PCR instrument, real-time quantitative PCR was performed with repeated 40 cycle (one cycle consisting of 95° C., 10 minutes; 95° C., 10 seconds; 58° C., 15 seconds; 72° C., 20 seconds). […]
After fixing the mouse brain and hippocampus, 0.5% thioflavin S (Sigma-Aldrich), anti-GFAP (rabbit, 1:500, DAKO), and anti-Iba-1 (rabbit, 1:500, WAKO) were co-cultured together. The regions were analyzed using a laser scanning confocal microscope equipped with Fluoview SV1000 imaging software (Olympus FV1000, Japan) or an Olympus BX51 microscope. […]

level of ASM concentration (ASM activity) in the plasma (ASM): remarkably low
B1: ASM-ab 23A12C3: self-made monoclonal ASM antibody, Koma biotech; heavy chain SEQ ID NO. 29, light chain SEQ ID NO. 30 (antibody)
heavy: MGWSWIFLFLLSGTAGVHSEVQLQQSGPVLVKPGASVKMSCKASGYTFTDYYMNWVKQSHGKSLEWIGVINPYNDGTSYNQKFKGKATLTVDKSSSTAYMELNSLTSEDSAVYYCAREKLYYYGRDYAMDYWGQGTSVTVSSAKTTPPSVYPLAPGSAAQTNSMVTLGCLVKGYFPEPVTVTWNSGSLSSGVHTFPAVLQSDLYTLSSSVTVPSSTWPSQTVTCNVAHPASSTKVDKKIVPRDCGCKPCICTVPEVSSVFIFPPKPKDVLTITLTPKVTCVVVDISKDDPEVQFSWFVDDVEVHTAQTKPREEQINSTFRSVSELPIMHQDWLNGKEFKCRVNSAAFPAPIEKTISKTKGRPKAPQVYTIPPPKEQMAKDKVSLTCMITNFFPEDITVEWQWNGQPAENYKNTQPIMDTDGSYFVYSKLNVQKSNWEAGNTFTCSVLHEGLHNHHTEKSLSHSPGK
light: MSSAQFLGLLLLCFQGTRCDIQMTQTTSSLSASLGDRVTISCRSSQDISNYLNWCQQKPDGTVKLLIYYTSRLHSGVPSRFSGSGSGTDYSLTISNLEQEDIATYFCQQDNTLPYTFGGGTKLEIKRADAAPTVSIFPPSSEQLTSGGASVVCFLNNFYPKDINVKWKIDGSERQNGVLNSWTDQDSKDSTYSMSSTLTLTKDEYERHNSYTCEATHKTSTSPIVKSFNRNEC
modifications: 23A12C3_Heavy chain; 23A12C3_Light chain
notes: self-made monoclonal ASM antibody, Koma biotech; 30
impairments in spatial memory, cognition and memory formation (MWM) (APP/PS1 mice): improved
activity of microglia (Iba-1) (astrocytes and microglia; FIG. 54A): significantly reduced
activity of astrocytes (GFAP) (astrocytes and microglia; FIG. 54B): significantly reduced
